Source: the supplement of paper PMC9170038

Test system: MS2 coat protein
Assay: apparent KD of MS2 coat protein; designed switch direction (-1 OFF switch, 1 ON switch): 1; higher = weaker reporter binding
Procedure, shortened: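 An oligonucleotide input, 200 uM small-molecule ligand, or no input was present during titration of SNAP-549-labelled MS2 coat protein, which was doubled from 0.7 or 1.5 nM to 3 µM. Designed RNA switches had been transcribed on Illumina chips by stalled E. coli RNA polymerase. Apparent KD per design is the median over clusters of curves fitted to normalised cluster fluorescence.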

[1] = Eterna round: R95, input ligand: FMN 200 uM
[2] = Eterna round: R95, input ligand: microRNA oligo, concentration not stated
[3] = Eterna round: R95, input ligand: none
[4] = input ligand: microRNA oligo, concentration not stated

Sequence | apparent KD of MS2 coat protein [1] | apparent KD of MS2 coat protein [2] | apparent KD of MS2 coat protein [3] | apparent KD of MS2 coat protein (input ligand: FMN 200 uM) | apparent KD of MS2 coat protein [4] | apparent KD of MS2 coat protein (input ligand: none)
AAAGUACAUGAGGAUCACCCAUGUCCAAAAAAGUAAGGAUAUGUGGUGCGACUACGAAACACAGAAGGUACAAAAA [Malcolm Mod] (puzzle: Same State 1) | 30.1 nM | 13.3 nM | 81.2 nM | – | – | –
UUUAUAUUCAGAGGAUAUUGAUGUUGUAUUUUACAAGAAGGCUGAUUGUUUUGUAAUGUUAUUAAACAUGAGGAUCACCCAUGU [JR_SSNG1_Sub013] (Eterna round: R96, puzzle: Same State NG 1) | – | – | – | 19.7 nM | 22.5 nM | 27.3 nM
CAGCGCUGUUGAGAGGAUAUGCGGUGAUGGACAUGAGGAUCACCCAUGUUAGCGACAGCAUUACGGUAGAAGGCUUCACAGCUGC [Soteed Omei mod 16] (puzzle: Same State 2) | 38.9 nM | 126 nM | 235 nM | – | – | –
UACAAUCUAUCUGAGGAUAUCAUGAAGAAAACAUGAGGAUCACCCAUGUGCAGGAUAACUGCAAAUGAGAAGGCAGAUAGAUUGG [Mat - Same State 2 - Mod - D4] (puzzle: Same State 2) | 12.9 nM | 17 nM | 24.6 nM | – | – | –
AGAGGAGGCGCAGGAUAUACGACGGAGGACGUGGUAGAAGGGUGCAUGCGAUAACAUGAGGAUCACCCAUGUACCGCGCGACGA [AK SSNG1-V2-17] (Eterna round: R96, puzzle: Same State NG 1) | – | – | – | 210 nM | 30.2 nM | 198 nM
AAAAGAAACACAGGAUAUACCGCACUUAACGCGGUAGAAGGGUGGGACAUGAGGAUCACCCAUGUGGUCUGGGCGCCAGACCGC [Esratean] (Eterna round: R96, puzzle: Same State NG 1) | – | – | – | 29.1 nM | 23.3 nM | 22 nM
UGUCCAGCCUGUGCUGGUCUUUUGCAUGUACAUGAGGAUCACCCAUGUCGUGUUCAUGCUUUUUGCUCGUCUUUAAA [Photon Torp-02] (puzzle: Sensor for hsa-mir-208a) | 49.7 nM | 17.2 nM | 53.5 nM | – | – | –
AGCUAUCGAAAACGAUAGCAAAAGCAUGUACAUGAGGAUCACCCAUGUCAUGUACAAGCUUUUUGCUCGUCUUGAAA [Zipper 23 - 9] (Eterna round: R96, puzzle: Sensor for hsa-mir-208a) | – | – | – | 496 nM | 16.6 nM | 824 nM
UGUUGUAUUACAGGAUAUCUAUUAUUGUUAUUUAGAGAAGGGUAUUCACAUGAGGAUCACCCAUGUAUAUACGAGGAAGUUGUG [JMF's solution 18] (Eterna round: R96, puzzle: Same State NG 1) | – | – | – | – | 39.9 nM | –
GGAAUAUGAUGUUACAUGAGGAUCACCCAUGUAGUGAUAACUAAGGAUAUCUGUUAAGAUAAUUAAGAGAAGGUAGGAUCAUAA [AK SSNG3-V2-8.2] (Eterna round: R96, puzzle: Same State NG 3) | – | – | – | 34.7 nM | 37.5 nM | 42.4 nM
GCUAGGAUAUGAAGAGGAUCACCCUUUAGAAGGAGCAUUAGCUAGGAUAUGAAGAGGAUCACCCUUUAGAAGGAGCACUACUCU [pwkr ssNG3 DX 2xF5 +2xFMN.7] (Eterna round: R96, puzzle: Same State NG 3) | – | – | – | 531 nM | 286 nM | 292 nM
GCGCAGCUGGGUGAGGAUAUCGGUGGUAAAACAUGAGGAUCACCCAUGUCCGAAGCUCGGACUUCCGAGAAGGCGCCCGGCUGCA [Ridigea] (puzzle: Same State 2) | 13 nM | 72.3 nM | 115 nM | – | – | –
GGAUGAUUAACAGGAUAUCAUUUGUAAAUUGGUUGAGAAGGGUUAAUGAUUUACACGACCUGUUACAUGAGGAUCACCCAUGUU [SameState NG1 #2] (Eterna round: R96, puzzle: Same State NG 1) | – | – | – | 41 nM | 33.8 nM | 47.2 nM
UGUUGUAUUACAGGAUAUCUAGUAUUUUUAUUGAGAGAAGGGUAUUCACAUGAGGAUCACCCAUGUAUAUACGAGGAAGUUGUG [JMF's solution 55] (Eterna round: R96, puzzle: Same State NG 1) | – | – | – | – | 34.8 nM | –
AAACCCAGUCUGUAGGAUAUGCACCUGCCGACAUGAGGAUCACCCAUGUACCCUAACAACAGCGUGCAGAAGGGCAGCAAUAAAA [Verilara] (puzzle: Same State 2) | 19.2 nM | 22.9 nM | 26.3 nM | – | – | –
GUGGUGAAUUAAGGAUAUCGAGUCUAGAUGUUAAACAUGAGGAUCACCCAUGUGGGUUGCGGUAUCGAGAAGGUAAUUUACGGG [salish99_SSNG2_r04_507] (Eterna round: R96, puzzle: Same State NG 2) | – | – | – | 25.4 nM | 26.1 nM | 47.2 nM

Sequence | apparent KD of MS2 coat protein [1] | apparent KD of MS2 coat protein [2] | apparent KD of MS2 coat protein [3] | apparent KD of MS2 coat protein (input ligand: FMN 200 uM) | apparent KD of MS2 coat protein [4] | apparent KD of MS2 coat protein (input ligand: none)
UCAAGCGAAAGGCUCGUCUUAUGCAAGAAACAUGAGGAUCACCCAUGUGAGGGACGAUUGAGUUAGAUGGAAUGGAA [JR_SHM208A_Sub031] (puzzle: Sensor for hsa-mir-208a) | 24.7 nM | 66.6 nM | 25 nM | – | – | –
GCUCGAUGAAUGUCCUACAUGAGGAUCACCCAUGUACGUGGGCAGGAUAUUUACAUGCAGAGUGUAGAGAAGGGCCCAUCGAGC [SameState NG3 #62] (Eterna round: R96, puzzle: Same State NG 3) | – | – | – | 16.1 nM | 28.6 nM | 49.1 nM
UCUUGGUUUUUGCUCGUUUUUUGUGUUGAACAUGAGGAUCACCCAUGUAUUGUACAAUCCAGUUUGAUAAUGGUCCG [JR_SHM208A_Sub045] (puzzle: Sensor for hsa-mir-208a) | 140 nM | 112 nM | 167 nM | – | – | –
AAUUAAGAUCUAGGAUAUCACGUCGAUUAGACGUGAGAAGGAGAUCAUAACAUGAGGAUCACCCAUGUAUUACAUGAAUUAAUU [SSNG1/6-B2] (Eterna round: R96, puzzle: Same State NG 1) | – | – | – | – | 23.4 nM | –
CAGCGCUGUCGAGAGGAUAUGCGGUGAUGGACAUGAGGAUCACCCAUGUUAGCGAUAGCAUUACGGUAGAAGGCUCUACAGCUGC [Soteed] (Eterna round: R96, puzzle: Same State 2) | – | – | – | 18.7 nM | 32.1 nM | 47.4 nM
GUGGUCAGACAUGAGGAUCACCCAUGUGGAAUAAAUAACGUACAGGAUAUUCAAUAUAGGAUAUAGAAGAAGGGUAGAUUGGUG (Eterna round: R96, puzzle: Same State NG 3) | – | – | – | 196 nM | 136 nM | 195 nM
UUAUAACAUGAGGAUCACCCAUGUCAACAAAGUCGAGGAUAUGGGCAGAGAGGAGAAGAACCAGAAGGCGAAUAUU [Mat - Same State 1 - Mod of UCT - D38] (puzzle: Same State 1) | 91.2 nM | 98.4 nM | 94.9 nM | – | – | –
CUUAACAGAGGAGGAUAUGCAGAGGAUCACCCUGUAGAAGGCCACAGAGGAGGAUAUGCAGAGGAUCACCCUGUAGAAGGCCAC [pwkr ssNG DX.8] (Eterna round: R96, puzzle: Same State NG 1) | – | – | – | 622 nM | 143 nM | 280 nM
AGCUAUUAAUCAGGAUAUAGUGACAUGAGGAUCACCCAUGUAUUGAUGAUUAAAUGUGGUCACCACUAGAAGGGAUUACUAACA [SameState NG2 #48] (Eterna round: R96, puzzle: Same State NG 2) | – | – | – | 23.2 nM | 23.8 nM | 26.9 nM
AGCUAAAACGAAGGAUAUACAAACAUGAGGAUCACCCAUGUAUACAUGGUUUGUUGUGACUACAUGUAGAAGGUCGUACUAACA [SameState NG2 #17] (Eterna round: R96, puzzle: Same State NG 2) | – | – | – | 388 nM | 307 nM | 500 nM
UUGCAGUCAGGUGAGGAUAUCAUGAGUUUAACAUGAGGAUCACCCAUGUGCUGCCUUGCAGCAUAUGAGAAGGCACCUGGCUGCU [JL-ss2-3.03 Brourd Mod] (puzzle: Same State 2) | 132 nM | 295 nM | 535 nM | – | – | –
UCUUGGUUUUUGCUCGUUUUUUGUGUUGAACAUGAGGAUCACCCAUGUAUUGUACGGUCCGGUUUAGUAGUGGUCCG [JMF 17] (puzzle: Sensor for hsa-mir-208a) | 25.7 nM | 16.6 nM | 30.4 nM | – | – | –
GGAAUAUUUACAGGAUAUGUUUUGUUAAGUCGAGCAGAAGGGUAGAUGUCUUACACGGUUUGUUACAUGAGGAUCACCCAUGUU [SameState NG1 #17] (Eterna round: R96, puzzle: Same State NG 1) | – | – | – | – | 86.6 nM | –
CACAUGAGGAUCACCCAUGUCAGACAAAGGAGCAUGACGCUACAGGAUAUGUGAGCGACUAACGAAUAGAAGGGUAGCCAUCAC [Eternabot solution 27] (Eterna round: R96, puzzle: Same State NG 3) | – | – | – | 27.5 nM | 20.8 nM | 29.3 nM
UGGCUGGUGAUAGGAUAUACAUGAGGAAUCCUCGUAGAAGGAUCACGACAUGAGGAUCACCCAUGUAGCCGUCCGUAGACGGCU [salish99_SSNG1_r04_005] (Eterna round: R96, puzzle: Same State NG 1) | – | – | – | 493 nM | 198 nM | 551 nM
